Assay: label from the status in PepcDB records
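Note: failed if final PepcDB status was selected cloned or expressed and not failed if soluble or beyond.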

Sequence | protein production
KWLDYDFTSLRKEILDKAFQKSLTQINWIMGGYYLVMESLSFFEYEQSIQSKTVRHLILVFYLLFFMGVIKKLDTYLKEKLYERLEQEQALRYRDMERYSRHIEELYKEVRSFRHDYTNLLTSLRLGIEEEDMEQIKEVYGSVLKDSSQKLQNNKYDLGRLVNIRDKALKSLLAGKFLKARDKNIVFNVEVPEEIQVEGMSLLDFLTIVSILCDNAIEASVEASQPHVSIAFLKNGAQETFIIENSIKEEGIDISEIFSFGASSKGEERGVGLYTVMKIVESHPNTSLNTTCQNQVFRQVLTVIHTE | failed
MTDESDSTAHVSCIIPVYNDSVGIKNTLRSVVGQEYHGYDVYVVDNGSTDGSRRRVRNCAAESDDIQLLVEDEVQGSYAARKTGVQNAESDVLAFLDADETVDEDWLETALGAMQEQDVDYLGCNVELTCPEDTLVGRYNARTGFPVEEYLEDQNYAPTCALLVRRKVFEDVGPFDARLISGGDREFGDRVHDAGYEQGYAENATVYHPARTSLESLAKKNFRVGRGFCQKQRYYPERYGKPGIPPTPSGPSGGDDGDEPDASLTRLAFTLLSIAMLACRGVGYYYEFVVGEENDDIPAPTSLEHHHHHH | failed
MSKEMRSRLFSILKVVFAVALFSIVVFTLYKELSHINIKETIQSFGKINRVWLVALFVIGGASIIVLSMYDVILAKSLNLKISLLKTIRVGYIVNALNAVVGFGGFIGASVRFLFYKNATDDKRALLHTISIVLISMLTGLSLLSILVVIHVFDVSHLFTPYPWIKWLMYVVALFLPVFVIFTILRPVQENQKLLGVYCTIVSSIEWLVAALVLYMALTMVGVHVPISIFMGIFIIAALSGLISFIPGGFGTFDLVVLLGLKHLNIDEESIVLGLLLYRFAYYLFPVLVALILSTFEFRGTAKRYWEDARILVPVRDMTSLLSSYQKDIIARAPSFSIAILLMFTSLLFFLNNLTIIYDGLYDPNHYIYYIIVSVHTCACLLLLLNVVGVYRLSKRAILFSIISIILIFIVTAYTYASFILLSWLVVMLILLFIFYRRARVIKRPFRYLKLCLSFIMGALVLYINHIVIASTFYTLDIYHIEIDTSILRYYFWFTILLVAVIVGLIVWWFEYRYRISNTREDTKICASIVKQYGGNYLSHLMYSGDKKFFINENEDAFIMYRYQRNAYIVLGDPIGNPQSFYSLLESFYQEAEYLGYDIIFYQVTDRNMSLYHSFGNQFFKLGEEAVIDLNEFKISGKKKRGLRATLNKLDDLKYTFEVIEPPFTQALITDLKTISDEWLADKKEMHFSVGSFNESYLSKAPIAIIKDSDGLIIAFCTLMPTYYKGTISVDLIRWKPDCTLPLMDGLYLNMLLWSQKQNYQHFNMGMATLSNVGQLPYSFYGERIAGRVFEHFNGLYRFQGLRKYKEKFNPNWEPRFLVYRKRHSLWLSMIKVMRVIRKHK | failed
AGVSISAQNLIKNEKFATEVTNKVTNPSKATAGEWFIMNNEADGVTTIAWEQTGDAKYPNAMKIDNSGAEKNTSWYKAFLGQRITDGLEKGIYVLTFYAKAKEAGTPVSVYIKQTNEEKNDNGKLNTTFFMRRDYDADAQPNASGAQYNFKIKDADKWTKVVVYYDMGQVVNAISSKKSNPALEVSDTDDDAAILKDCYVAILGQNKGGVVEISDVTLKKK | not failed
MAKRKKKEVFDWEDEDQEEIIWVSKSEIKRDAEDLKQLGEKIVNLTKANLAKIPLDESLLDAIELAQRLQKEARRRQLQYIGKLFRGIDVEPIREALDKIENKHNQQQAMLHKIEKVRDELVEKGDVALTDLLNDYPNGDRQQLRNLIRSAQKELEQNKPSKAYREIYQMLKVLMLED | failed
MLAILYDRIRPDERMLFERAEALGLPYKKVYVPALPMVLGERPKELEGVTVALERCVSQSRGLAAARYLTALGIPVVNRPEVIEACGDKWATSVALAKAGLPQPKTALATDREEALRLMEAFGYPVVLKPVIGSWGRLLAKVTDRAAAEALLEHKEVLGGFQHQLFYIQEYVEKPGRDIRVFVVGERAIAAIYRRSAHWITNTARGGQAENCPLTEEVARLSVKAAEAVGGGVVAVDLFESERGLLVNEVNHTMEFKNSVHTTGVDIPGEILKYAWSLAS | not failed
NKSIRMTPSQVAFEIRGTLLPGEVFAICGSCDALGNWNPQNAVALLPENDTGESMLWKATIVLSRGVSVQYRYFKGYFLEPKTIGGPCQVIVHKWETHLQPRSITPLESEIIIDDGQFGIHNGVETLDSGWLTCQTEIRLRLHYSEKPPVSITKKKLKKSRFRVKLTLEGLEEDDDDRVSPTVLHKMSNSLEISLISDNEFKCRHSQPECGYGLQPDRWTEYSIQTMEPDNLELIFDFFEEDLSEHVVQGDALPGHVGTACLLSSTIAESGKSAGILTLPIMSRNSRKTIGKVRVDYIIIKPLPGYSCDMKSSFSKYWKPRIPLDVGHRGAGNSTTTAQLAKVQENTIASLRNAASHGAAFVEFDVHLSKDFVPVVYHDLTCCLTMKKKFDADPVELFEIPVKELTFDQLQLLKLTHVTALKSKDRKESVVQEENSFSENQPFPSLKMVLESLPEDVGFNIEIKWICQQRDGMWDGNLSTYFDMNLFLDIILKTVLENSGKRRIVFSSFDADICTMVRQKQNKYPILFLTQGKSEIYPELMDLRSRTTPIAMSFAQFENLLGINVHTEDLLRNPSYIQEAKAKGLVIFCWGDDTNDPENRRKLKELGVNGLIYDRIYDWMPEQPNIFQVEQLERLKQELPELKSCLCPTVSRFVPSSLCGESDIHVDANGIDNVENA | not failed
MMDVNSSGRPDLYGHLRSFLLPEVGRGLPDLSPDGGADPVAGSWAPHLLSEVTASPAPTWDAPPDNASGCGEQINYGRVEKVVIGSILTLITLLTIAGNCLVVISVCFVKKLRQPSNYLIVSLALADLSVAVAVMPFVSVTDLIGGKWIFGHFFCNVFIAMDVMCCTASIMTLCVISIDRYLGITRPLTYPVRQNGKCMAKMILSVWLLSASITLPPLFGWAQNVNDDKVCLISQDFGYTIYSTAVAFYIPMSVMLFMYYQIYKAARKSAAKHKFPGFPRVEPDSVIALNGIVKLQKEVEECANLSRLLKHERKNISIFKREQKAATTLGIIVGAFTVCWLPFFLLSTARPFICGTSCSCIPLWVERTFLWLGYANSLINPFIYAFFNRDLRTTYRSLLQCQYRNINRKLSAAGMHEALKLAERPERPEFVLITRTSGVHQALENFPWGNEVNRWRKSCEYFCTDKMLTTVEKKVMIHD | failed
MEYTTLAVLAGLPEDPHGAVGLPIYAVAAYGFKTLEEGQERFATGEGYVYARQKDPTAKALEERLKALEGALEAVVLASGQAATFAALLALLRPGDEVVAAKGLFGQTIGLFGQVLSLMGVTVRYVDPEPEAVREALSAKTRAVFVETVANPALLVPDLEALATLAEEAGVALVVDNTFGAAGALCRPLAWGAHVVVESLTKWASGHGSVLGGAVLSRETELWRNYPQFLQPDLKGQIPWEALRARCFPERVRTLGLSLCGMALSPFNAYLLFQGLETVALRVARMSETARFLAERLQGHPKVKALRYPGLPEDPAHRNARKYLASGGPILTLDLGDLERASRFLGAIRLLKAANLGDARTLLVHPWTTTHSRLKEEARLQAGVTPGLVRVSVGLEDPLDLLALFEEALEAV | not failed
MLQIIFLVIGLFIIVLALSFAFKRYARLILWSSAITLFAGTLLLVGIGVINPIDGDNTGSTTFWGTIITLISGAALAFCAEMLKEGNKGKTKVQNGNSSVSGKQTADNEETVVLIGMLHTELAIKVFAKAIEAGYIGEKGSHYKWNDSKVLLAYMCGRIYCGDKPEYSEMDEKSYWKFGRMGVFPDTELSNLFEMPDLGQSRSNRKDLAVPAKSKEIDKFFE | failed
MSPLALLFLTLFNSVLGLSILFPILGPLGRALGLTEVQVGLFSTGYALMQFLLSPYWGRRSERGRKPVLLVGILGFAASFLLFGVFALLGERGLVPPGLLFFLLLLARLLGGAFSSATLPTAQAYVADVTGRENRTAGMALLGAAFGLAVILGPALGAGLAALFGLLAPVFFSAGIALLNALFVYLVLPESRPRGQEAGARLSPFDPRVFPLLLLGLALNLSSVALEQTIAFYFQDRLLLGGVETAQKVGLALVLYGVVAVFVQGVLVRKTGWPPRVLLSLGLPLGILGFVLLVYAKTFWALALGLALQGAGQGLALPGVTAALSLAVGEGEQGLVAGLNSSAQALGRMLGPIVGTGLYRLAPEGPYVLGASLLLLALLFLPALFRRARL | failed
QPSRFLLKVLAGANIGAEFHLDSGKTYIVGSDPQVADIVLSDMSISRQHAKIIIGNDNSVLIEDLGSKNGVIVEGRKIEHQSTLSANQVVALGTTLFLLVDYAAPS | not failed
EPLKDAVLIEGLPGIGHVGRVAAEHIVEEFNGEKVLELYCDDFPPQIVVKNDGTIEYMKNEFYLVKEPVPMVIVLGNTQALSPKGQYVLSEKIVDIAMKYGATKTYTLGGFGIGKISDELKVYVASTSKELSEQHKELGAEFRTDGGSIIGAAGLMLKFSKLKGIEGICLMGETPGYLVDPKSAGNVLEMLSKAIGFEIDMKKLDERAKEMEKFIEKVQMQEQGMQAPQHQDDLSYIG | failed
MTIYLHSIQIGVLLFFIFLFISLIPYLIVQYRRYGRINFWRFFVNFSFILYLICAYAMTIFPLPPVSEVAKMTGPKQNLVPFEFVRQFILYSPFNINEPSTWLAALKDSTFIQPFFNLLLTLPFGLYLRYLFKRSFKQTFVLSFLLTLSFELIQRSALFGLYPRPYRLFDVDDLMINTLGSLIGFGIAVTFSRFLPDLDATKAESSRVSLSRRFIAFLVDLVLIFIIGSLFLPIGYYSELIILGLVPLVLKATPGQLLLRIQIKAKNRFRIALRQFLSFGNFALIISAEYFLQRSGTIPQDQLGQNFLLILLFLGLSLLPLLDVLIAFLSKTRKLWYERVSDTEMIAKLKTNEE | failed
MGKIFCIVQARMGSERLQGKVIKPILKKPMVIYTLDRLKKSKYIDKIVLATSSMERETPLVESCEEYGYDVFKGSEANVLKRYEQAAEKYGANIEDAVIRVTGDCPLIDPIIVDNVVTKFLSSDYDYVRLDVPNTFVRGFDVEIFSMKALKTVNSLINGGKIPKEEADMYKEHVTLYMYKHPNEFKVGYVKGDEFYSKDYRLCVDTKEDFELVKNIYEHFNDEFVSSKNVINYLDRNSEIAQINNDIKQKEVLEHHHHHH | not failed
METNRPSPDALLVNLQEEADSSVGKLKIYFGFAAGVGKTYAMLSDAKDQLAAGVDVVAGYIEPHAREETLRMLEGIPIIPPKAINHKNIALKEFDLDEALKRKPELILVDELAHTNASGVRNKKRFQDVEELLQAGIDVYTTVNVQHIESLNDIVEGITKVAVRETIPDYVFDEADRVKLIDIEPDELLKRLEQGKIYQPARAKTAMQNFFTRENLKLLREIAMRKAADRI | not failed
MRFLLMRSLLVHPCGGSIINVRSTTTSAQYVASRSRDPVFEKLMDKYKNLLKVIAIQDLTLANPTADPPSLSIEFLSRLSQKLHLNRGAASFLRKYPHIFHVLYDPVKAEPFCRLTDVAMEISRQEALAITATLSLVVDRLVRLLSMSISKSIPLRAVFKVWRELGLPDDFEDSVISKNPHLFKLSDGHESNTHILELVQEEEKRLEFEAAVEKWRVVECSKEDCSVDRTEIQFSFKHSYPPGMRLSKTFKAKVKEWQRLPYVGPYEDMVGKKKSRSGVMGIEKRAVAIAHEFLNLTVEKMVEVEKISHFRKCFGIDLNIRDLFLDHPGMFYVSTKGKRHTVFLREAYERGRLIDPNPVYDARRKLLDLVLLGRHAALSESGNTSMSEQE | failed
MANSIDLIGYVHQPVQFDSTLDGKFWAGTVISHEPSSDSKSESDSSSNFWIPVLFEGDLAHTANSYLKKNDRVHITGQILGDVIQSGANSDQAHVQLFKSFHGSFSHQVMVRD | failed
VYLDFENHIKEIQNEIELALIRGDEDAKEILEKRLDKEVKSIYSNLTDFQKLQLARHPDRPYAMDYIDLILKDKYEVFGDRHYNDDKAIVCFVGKIDNVPVVVIGEEKGRGTKNKLLRNFGMPNPCGYRKALKMAKFAEKFNL | failed
MRERRYSSTSPERLAAALFDVAAESGLEGASVREVAKRAGVSIGAVQHHFSTKDEMFAFALRTLVDKLLARLSEVERGGDPARALFAAMSQLLPLDEARSREAHVMAAFAVRAATSPSLAEIRRKTLFTIRTGLSAVLIGIGTPEAETRAALLLATVDGLALDAIGSPALYPPEYLEHALDIQIGMILQGADVVPSSSIELAS | not failed
